This is an account of results in US20250129141A1 (BEIJING WISDOMAB BIOTECHNOLOGY, published 2025).

Residue numbers refer to the chain shown, from its start. Bounds are passed on as bounds.

The assay concerns the target recombinant protein of C-terminal domain of tetanus toxin heavy chain with C-terminal His tag (TT-Hc-His) (Clostridium tetani, UniProt P04958 865-1315).

B1: S22E2-h1-IgG1 (antibody, V domains shown)
VH: QVTLKESGPVLVKPTETLTLTCTVSGFSLTDYGVNWIRQPPGKALEWLGMIWSDGTTDYSSALKSRLTISKDTSKSQVVLTMTNMDPVDTATYYCARVDGYSHYYAMDYWGQGTLVTVSS
VL: DIQMTQSPSSLSASVGDRVTITCRASENIYSYLAWYQQKQGKAPQLLIYNAKTLAEGVSSRFSGSGSGTQFTLTISSLQPEDFATYYCQHHYGLPFTFGQGTKLEIK
B1: the Kd – broadly, the equilibrium constant for the complex coming apart – came to 0.573 nM.

B2: S24B8-h1-IgG1 (antibody, V domains shown)
VH: QVQLVQSGAEVKKPGSSVKVSCKASGYTFTSYWIYWVRQAPGQGLEWIGEINPTNGFANYNEKFKTKATITVDKSTSTAYMELSSLRSEDTAVYYCAIHFRFPYWGQGTMVTVSS
VL: DIQMTQSPSSLSASVGDRVTITCRASQDIGSSLTWLQQKPGKAPKRLIYATSSLDSGVPSRFSGSGSGTDYTLTISSLQPEDFATYYCLQYASSPYTFGQGTKLEIK
As for B2, the koff – broadly, a measure of how fast the partners let go of each other – was less than 1e-05 s⁻¹.

B3: S24B8-h3-IgG1 (antibody, V domains shown)
VH: B2 VH with G56A
VL: B2 VL
Turning to B3, the Kd was 0.164 nM.

B4: S24B8-h2-IgG1 (antibody, V domains shown)
VH: B2 VH with N55A
VL: B2 VL
Regarding B4, the dissociation constant Kd is 0.385 nM.
